Assays:
[1] = molecular target: T1, ヒトFcγRIIa (R) (human, UniProt P12318 34-217); experiment: SPR, KD; reference IL6R-B3/IL6R-L
T1 construct: extracellular domain; N-glycans trimmed with Endo F1/F2/F3 for the crystals; also called FcγRIIa R型
T1 sequence (looked up): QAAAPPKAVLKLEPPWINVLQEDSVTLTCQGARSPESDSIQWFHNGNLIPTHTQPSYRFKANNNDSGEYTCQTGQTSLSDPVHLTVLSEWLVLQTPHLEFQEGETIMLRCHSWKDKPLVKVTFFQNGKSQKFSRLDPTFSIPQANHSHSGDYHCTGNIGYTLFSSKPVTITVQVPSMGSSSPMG

[2] = molecular target: T2, ヒトFcγRIIb (human, UniProt P31994 43-217); experiment: SPR, KD; reference IL6R-B3/IL6R-L
T2 construct: extracellular domain; for the crystals it was expressed with kifunensine and its N-glycans trimmed with Endo F1; also called FcγRIIb細胞外領域
T2 sequence (looked up): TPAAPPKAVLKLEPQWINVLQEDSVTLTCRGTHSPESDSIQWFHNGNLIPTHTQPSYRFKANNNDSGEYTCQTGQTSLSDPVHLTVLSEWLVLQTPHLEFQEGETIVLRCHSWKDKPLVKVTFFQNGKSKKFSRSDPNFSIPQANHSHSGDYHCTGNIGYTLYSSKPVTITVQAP

- fold enhancement of binding against IL6R-B3/IL6R-L [1]: ~1.9 fold
- fold enhancement of binding against IL6R-B3/IL6R-L [2]: ~150 fold
- fold improvement of binding activity against IL6R-B3 [2]: 148 fold
B1: IL6R-BP230/IL6R-L (antibody)
chain 1: QVQLQESGPGLVKPSETLSLTCAVSGHSISHDHAWSWVRQPPGEGLEWIGFISYSGITNYNPSLQGRVTISRDNSKNTLYLQMNSLRAEDTAVYYCARSLARTTAMDYWGEGTLVTVSSASTKGPSVFPLAPSSKSTSGGTAALGCLVKDYFPEPVTVSWNSGALTSGVHTFPAVLQSSGLYSLSSVVTVPSSSLGTQTYICNVNHKPSNTKVDKKVEPKSCDKTHTCPPCPAPDLLGDDSVFLFPPKPKDTLMISRTPEVTCVVVDVSDEDGEVKFNWYVDGVEVHNAKTKPREEQDNSTYRVVSVLTVLHQDWLNGKEYKCKVSNKALPRPIEKTISKAKGQPREPQVYTLPPSRDELTKNQVSLTCLVKGFYPSDIAVEWESNGQPENNYKTTPPVLDSDGSFFLYSKLTVDKSRWQQGNVFSCSVMHEALHNHYTQESLSLSP
chain 2: not shown

From patent JP2014043405A (dated 2014)
